The test system of one data set is elastin. Put plainly: Elastin assay (Fastin colorimetric assay of culture media). Particulars: 48 hours, spent fibroblast media, untreated 69 ± 2. In kind it is cell-based, human. As for the experimental part:
Elastin is released by fibroblasts (soluble elastin) into the extracellular space where it is then cross-linked to other elastin proteins to form an extensive network of fibers and sheets (insoluble elastin). Soluble elastin can be readily measured from cell culture medium via a colorimetric assay.
(§1) The test materials were tested in triplicate.
In these experiments, the Biocolor Fastin Elastin Assay kits were used. A 50 μl aliquot of sample material (cell culture medium for soluble elastin) was mixed with 1.0 ml of cold Fastin Precipitating Reagent in a 1.5-ml microcentrifuge tube. In addition to the spent media samples from the fibroblasts, 50 μl aliquots of the test materials diluted into fresh culture media at the concentrations used in the study were also assayed for elastin content. The sample/Fastin Precipitating Reagent mixture was then incubated overnight in an ice water bath to precipitate the elastin. On the following day, the cold microcentrifuge tubes were spun at 10,000×g for 10 minutes to pack the precipitated elastin and the supernatant was removed via careful aspiration.
One (1) ml of Fastin Dye Reagent, along with 100 μl of 90% saturated ammonium sulphate was added to each tube. The microcentrifuge tubes were mixed with a vortex mixer and then allowed to incubate for at least 60 minutes at room temperature, with gentle mechanical agitation. The Fastin Dye Reagent interacts with unique amino acid sequences in the elastin protein. This elastin-dye complex precipitates in the presence of ammonium sulphate. After the incubation was over, the microcentrifuge tubes were spun at 10,000×g for 10 minutes to separate the precipitated elastin-dye complex from the unbound dye. The supernatant was carefully removed and the tubes were inverted to allow any residual supernatant to drain out.
To release the elastin-bound dye, 1.0 ml of Fastin Destain reagent was added to each microcentrifuge tube. The tubes were capped as quickly as possible, as this reagent contains ammonia and methanol. The tubes were then vortexed. The absorbance of this solution was measured by a plate reader at 490 nm (200 μl volume read).
An elastin standard curve was generated using 12.5, 25, and 50 μg aliquots of an Elastin Standard into microcentrifuge tubes (in duplicate). These samples were treated as described above (Elastin Assay) and the absorbance values were used to generate a standard curve of known concentrations. To derive the standard curve for the elastin assay, the absorbance was plotted against the elastin concentration in μg/ml for the standards. […] Mean absorbance values for the test materials and untreated samples were then used to estimate the amount of elastin present in each sample.

The subject of another data set is MMP-1. Put plainly: MMP-1 assay (fluorometric ELISA of fibroblast culture media). In kind it is cell-based, human. The note with it: for MMP-1 Activity: 48 hours, untreated 0.11 ± 0.05; for effect on MMP-1 activity: summary in words. On the procedure: MMP-1 is a zinc and calcium dependent endopeptidase that is produced and released from both dermal fibroblasts and keratinocytes, and functions to break down collagens located in the extracellular matrix. Active MMP-1 released into the culture media can be assayed using a fluorescence-based ELISA. […] To quantify the active MMP-1 a fluorogenic substrate linked to a quencher molecule is added and any active MMP-1 present will cleave the peptide linkage between the fluorophore and the quencher molecule. This cleavage will eliminate the quencher molecules ability to inhibit the fluorescent signal of the fluorophore allowing a fluorescent signal that will be proportional to the amount of active MMP-1 present.
as §1
R&D Products MMP-1 Fluorokine E fluorometric ELISA kits were used in these experiments. A series of MMP-1 standards was prepared ranging from 0.39 ng/ml to 25 ng/ml and an ELISA microplate was prepared by removing any unneeded strips from the plate frame. In each well, 200 μA of Assay Diluent RD1-64 and 50 μA of each sample were added. For the standards, 100 μl of Assay Diluent RD1-64 and 150 μl of each respective standard were added. The plate was incubated for 3±0.25 hours at room temperature on a rocking platform. At the end of the incubation period, each well was aspirated and then washed four times with 400 μl of wash buffer. […] After the incubation period, the plate was washed four times as described above. After the last wash, 200 μl of substrate solution were added to each well and the plate was incubated for 17-20 hours at 37±2° C. (protected from light). At the end of the incubation period, the fluorescence intensity was measured (excitation 320 nm, emission 405 nm) using a fluorometer using a 20 mS integration time. To quantify the amount of MMP-1 activity, a standard curve was generated using known activity levels of MMP-1. […] Mean absorbance values for the test materials and untreated samples were then used to estimate the amount of MMP-1 activity present in each sample.

Data set [1] relates to Fibroblasts (HDFn Cell Line). Kind of data set: Initial pilot cell viability dose response (MTT assay). The note with it: for cell viability, percent of untreated cells: 48 hours; for effect on the number of viable cells: initial dose response, summary in words.
Description: Initial screening was conducted to identify a test range suitable to determine the effect of a broad range of test material concentrations on cell viability. […] Cultured fibroblasts were exposed to the test materials for 48 hours and then changes in cell viability were determined using an MTT assay (i.e., a colorimetric analysis of the metabolic activity of the cultured cells, described in greater detail below).
The purple crystals are extracted from the cells with isopropanol and the amount of crystal formation quantified spectrophotometrically. […] A decrease in color intensity can be a sign of toxicity.
Fibroblasts (Cascade Biologics, HDFn Cell Line, lot#1C0914) were seeded into the individual wells of either a 96-well plate (for the initial pilot work to determine concentration effects on cell viability) in 100 μl of Fibroblast Growth Media (FGM) or in 12-well plates (for the measurement of collagen, elastin and MMP-1) in 1.0 ml of FGM and incubated overnight at 37±2° C. and 5±1% CO2. On the following day, the medium was removed via aspiration to eliminate any non-adherent cells and replaced with fresh FGM. The cells were grown until confluent, with a media change every 48 to 72 hours. Upon reaching confluency, the cells were treated for 24 hours with Dulbecco's Modified Essential Media (DMEM) supplemented with 1.5% FBS to wash out any effects from the growth factors included in the normal FGM. After this 24-hour wash out period, the cells were treated with the test materials at the specified concentrations dissolved in DMEM with 1.5% FBS. Untreated cells (negative controls) received DMEM with 1.5% FBS. The cells were incubated for 48 hours and at the end of the incubation period cell culture medium was either discarded (pilot work) or collected and stored frozen at −75° C. The test materials were tested in triplicate.
After the 2-day incubation, the cell culture medium was removed and the fibroblasts were washed twice with PBS to remove any remaining test material. After the final wash, either 100 μl (96-well plates) or 300 μl (12-well plates) of DMEM supplemented with 0.5 mg/ml MTT were added to each well and the cells were incubated for 1 hour at 37±2° C. and 5±1% CO2. After the incubation, the DMEM/MTT solution was removed and the cells were washed again once with PBS and then either 100 μl (96-well plates) or 1 ml (12-well plates) of isopropyl alcohol were added to each well to extract the purple formazin crystals. For the 12-well plates, two hundred microliters of the isopropyl extracts was transferred to a 96-well plate. The 96-well plates were read at 540 nm using isopropyl alcohol as a blank. The mean MTT absorbance value for the negative control cells was calculated and used to represent 100% value for cell viability. The individual MTT values from the cells undergoing the various treatments were then divided by the mean value for the negative control cells and expressed as a percent, to determine the change in cell viability caused by each treatment.
For data set [2], the system named is procollagen type I C-peptide. Kind of data set: Procollagen assay (type I C-peptide ELISA of fibroblast culture media). In kind it is cell-based, human. Particulars: 48 hours, untreated 873 ± 111.
Description: Collagen is synthesized as part of a much larger procollagen peptide. As the peptide is processed to form a mature collagen protein, the propeptide portion is cleaved off (type I C-peptide). Both the mature collagen protein and the type I C-peptide fragment are then released into the extracellular environment and accumulate in the culture media. Since there is a 1:1 stoichiometric ratio between the two parts of the procollagen peptide, assaying for type I C-peptide will reflect the amount of collagen synthesized. Type 1 C-peptide can be assayed via an ELISA based method.
as §1
Takara procollagen type IC-peptide ELISA kits were used in these experiments. A series of type I C-peptide standards was prepared ranging from 40 ng/ml to 640 ng/ml. An ELISA microplate was then prepared by removing any unneeded strips from the plate frame. To each well in the plate 100 μl of peroxidase-labeled anti procollagen type I-C peptide was added, followed by 20 μA of either sample (tissue culture media) or standard. The microplate was covered and allowed to incubate for 3±0.25 hours at 37° C. After the incubation period, each well was aspirated and washed three times with 400 μl of wash buffer. After the last wash was removed, 100 μl of peroxidase substrate solution (hydrogen peroxide containing tetramethylbenzidine as a chromagen) were added to each well and the plate was incubated for 15±5 minutes at room temperature. After the incubation period, 100 μA of stop solution (1 N sulfuric acid) was added to each well and the plate was read using a microplate reader at 450 nm. To quantify the amount of procollagen present, a standard curve was generated using known concentrations of procollagen type 1-C peptide. […] Mean absorbance values for the test materials and untreated samples was then used to estimate the amount of procollagen type 1-C peptide present in each sample.

B1: GC2596-26-D: SELP47K modified with two units of ALSYP (SEQ ID NO:36) peptides in each SELP47K unit; SEQ ID NO:32 (Example 4) (protein)
chain: MDPVVLQRRDWENPGVTQLNRLAAHPPFASDPMGAGAGSGAGAGSALSYPGVGVPGVGVPGVGVPGVGVPGKGVPGVGVPGVGVPGVGVPALSYPGAGAGSGAGAGSGAGAGSGAGAGSALSYPGVGVPGVGVPGVGVPGVGVPGKGVPGVGVPGVGVPGVGVPALSYPGAGAGSGAGAGSGAGAGSGAGAGSALSYPGVGVPGVGVPGVGVPGVGVPGKGVPGVGVPGVGVPGVGVPALSYPGAGAGSGAGAGSGAGAGSGAGAGSALSYPGVGVPGVGVPGVGVPGVGVPGKGVPGVGVPGVGVPGVGVPALSYPGAGAGSGAGAGSGAGAGSGAGAGSALSYPGVGVPGVGVPGVGVPGVGVPGKGVPGVGVPGVGVPGVGVPALSYPGAGAGSGAGAGSGAGAGSGAGAGSALSYPGVGVPGVGVPGVGVPGVGVPGKGVPGVGVPGVGVPGVGVPALSYPGAGAGSGAGAGSGAGAGSGAGAGSALSYPGVGVPGVGVPGVGVPGVGVPGKGVPGVGVPGVGVPGVGVPALSYPGAGAGSGAGAGSGAGAGSGAGAGSALSYPGVGVPGVGVPGVGVPGVGVPGKGVPGVGVPGVGVPGVGVPALSYPGAGAGSGAGAGSGAGAGSGAGAGSALSYPGVGVPGVGVPGVGVPGVGVPGKGVPGVGVPGVGVPGVGVPALSYPGAGAGSGAGAGSGAGAGSGAGAGSALSYPGVGVPGVGVPGVGVPGVGVPGKGVPGVGVPGVGVPGVGVPALSYPGAGAGSGAGAGSGAGAGSGAGAGSALSYPGVGVPGVGVPGVGVPGVGVPGKGVPGVGVPGVGVPGVGVPALSYPGAGAGSGAGAGSGAGAGSGAGAGSALSYPGVGVPGVGVPGVGVPGVGVPGKGVPGVGVPGVGVPGVGVPALSYPGAGAGSGAGAGSGAGAGSGAGAGSALSYPGVGVPGVGVPGVGVPGVGVPGKGVPGVGVPGVGVPGVGVPALSYPGAGAGSGAGAGSGAGAMDPGRYQDLRSHHHHHH
modifications: SELP 47K-P4
Consider B1, for which the Elastin with elastin (0.0014%) came to 72 ± 12 μg/ml media; with elastin (0.007%) it was 69 ± 4 μg/ml media; with elastin (0.014%), 68 ± 10 μg/ml media. Also, the “MMP-1 Activity” value was -0.01 ± 0.01 ng/mL in the data set on MMP-1 (0.0014%), -0.02 ± 0.02 ng/mL in the data set with MMP-1 (0.007%) and -0.03 ± 0.01 ng/mL in the data set on MMP-1 (0.014%). Also, the “effect on MMP-1 activity” value with MMP-1 is reported as “almost complete loss of detectable MMP-1 activity”. Also, the “cell viability, percent of untreated cells” value in data set [1] (0.0014%) amounted to 130 ± 15%; in data set [1] (0.007%) it was 138 ± 9%; in data set [1] (0.014%) it was 145 ± 12%; in data set [1] (0.07%), 145 ± 11%; in data set [1] (0.14%) it was 154 ± 24%. In data set [1], the “effect on the number of viable cells” value is on record as “strongly stimulate increases in the number of viable cells”. Further, the “Type-1 C Peptide” value worked out at 894 ± 156 ng/mL in data set [2] (0.0014%), 908 ± 94 ng/mL in data set [2] (0.007%) and 829 ± 171 ng/mL in data set [2] (0.014%).

B2: GC2596-26-E: collagen-like repeat sequence protein polymer, head-[(GAHGPAGPK)2(GAQGPAGPG)24(GAHGPAGPK)2]4-tail; SEQ ID NO:34 (Example 5) (protein)
chain: MDPVVLQRRDWENPGVTQLNRLAAHPPFASDPMGAHGPAGPKGAHGPAGPKGAQGPAGPGGAQGPAGPGGAQGPAGPGGAQGPAGPGGAQGPAGPGGAQGPAGPGGAQGPAGPGGAQGPAGPGGAQGPAGPGGAQGPAGPGGAQGPAGPGGAQGPAGPGGAQGPAGPGGAQGPAGPGGAQGPAGPGGAQGPAGPGGAQGPAGPGGAQGPAGPGGAQGPAGPGGAQGPAGPGGAQGPAGPGGAQGPAGPGGAQGPAGPGGAQGPAGPGGAHGPAGPKGAHGPAGPKGAHGPAGPKGAHGPAGPKGAQGPAGPGGAQGPAGPGGAQGPAGPGGAQGPAGPGGAQGPAGPGGAQGPAGPGGAQGPAGPGGAQGPAGPGGAQGPAGPGGAQGPAGPGGAQGPAGPGGAQGPAGPGGAQGPAGPGGAQGPAGPGGAQGPAGPGGAQGPAGPGGAQGPAGPGGAQGPAGPGGAQGPAGPGGAQGPAGPGGAQGPAGPGGAQGPAGPGGAQGPAGPGGAQGPAGPGGAHGPAGPKGAHGPAGPKGAHGPAGPKGAHGPAGPKGAQGPAGPGGAQGPAGPGGAQGPAGPGGAQGPAGPGGAQGPAGPGGAQGPAGPGGAQGPAGPGGAQGPAGPGGAQGPAGPGGAQGPAGPGGAQGPAGPGGAQGPAGPGGAQGPAGPGGAQGPAGPGGAQGPAGPGGAQGPAGPGGAQGPAGPGGAQGPAGPGGAQGPAGPGGAQGPAGPGGAQGPAGPGGAQGPAGPGGAQGPAGPGGAQGPAGPGGAHGPAGPKGAHGPAGPKGAHGPAGPKGAHGPAGPKGAQGPAGPGGAQGPAGPGGAQGPAGPGGAQGPAGPGGAQGPAGPGGAQGPAGPGGAQGPAGPGGAQGPAGPGGAQGPAGPGGAQGPAGPGGAQGPAGPGGAQGPAGPGGAQGPAGPGGAQGPAGPGGAQGPAGPGGAQGPAGPGGAQGPAGPGGAQGPAGPGGAQGPAGPGGAQGPAGPGGAQGPAGPGGAQGPAGPGGAQGPAGPGGAQGPAGPGGAHGPAGPKGAHGPAGPKMDPGRYQLSAGRYHYQLVWCQK
modifications: silk-elastin repeat sequence protein copolymer
As to B2, the Elastin is 63 ± 10 μg/ml media in the data set with elastin (0.001%), 59 ± 5 μg/ml media with elastin (0.005%) and 50 ± 18 μg/ml media in the data set with elastin (0.01%). In addition, the “MMP-1 Activity” value in the data set on MMP-1 (0.001%) was 0.04 ± 0.05 ng/mL; in the data set on MMP-1 (0.005%) it was -0.01 ± 0.02 ng/mL; in the data set on MMP-1 (0.01%) it was 0.00 ± 0.02 ng/mL. The “effect on MMP-1 activity” value in the data set on MMP-1 is reported as “almost complete loss of detectable MMP-1 activity”. Also, in data set [1], the “effect on the number of viable cells” value is recorded as “reduce the number of viable cells”. In addition, the “Type-1 C Peptide” value in data set [2] (0.001%) stood at 838 ± 75 ng/mL; in data set [2] (0.005%), 1162 ± 194 ng/mL; in data set [2] (0.01%), 956 ± 110 ng/mL.

Values taken from patent US20130059772A1, “Use of Repeat Sequence Protein Polymers in Personal Care Compositions” (DANISCO US INC., priority 2003, published 2013).
